According to IntAct's records for PubMed 25231868:

B1: DNA endonuclease SAE2 (Saccharomyces cerevisiae), P46946 (parent)
chain: MVTGEENVYLKSSLSILKELSLDELLNVQYDVTTLIAKRVQALQNRNKCVLEEPNSKLAEILCHEKNAPQQSSQTSAGPGEQDSEDFILTQFDEDIKKESAEVHYRNENKHTVQLPLVTMPPNRHKRKISEFSSPLNGLNNLSDLEDCSDTVIHEKDNDKENKTRKLLGIELENPESTSPNLYKNVKDNFLFDFNTNPLTKRAWILEDFRPNEDIAPVKRGRRKLERFYAQVGKPEDSKHRSLSVVIESQNSDYEFAFDNLRNRSKSPPGFGRLDFPSTQEGNEDKKKSQEIIRRKTKYRFLMASNNKIPPYEREYVFKREQLNQIVDDGCFFWSDKLLQIYARC
partner: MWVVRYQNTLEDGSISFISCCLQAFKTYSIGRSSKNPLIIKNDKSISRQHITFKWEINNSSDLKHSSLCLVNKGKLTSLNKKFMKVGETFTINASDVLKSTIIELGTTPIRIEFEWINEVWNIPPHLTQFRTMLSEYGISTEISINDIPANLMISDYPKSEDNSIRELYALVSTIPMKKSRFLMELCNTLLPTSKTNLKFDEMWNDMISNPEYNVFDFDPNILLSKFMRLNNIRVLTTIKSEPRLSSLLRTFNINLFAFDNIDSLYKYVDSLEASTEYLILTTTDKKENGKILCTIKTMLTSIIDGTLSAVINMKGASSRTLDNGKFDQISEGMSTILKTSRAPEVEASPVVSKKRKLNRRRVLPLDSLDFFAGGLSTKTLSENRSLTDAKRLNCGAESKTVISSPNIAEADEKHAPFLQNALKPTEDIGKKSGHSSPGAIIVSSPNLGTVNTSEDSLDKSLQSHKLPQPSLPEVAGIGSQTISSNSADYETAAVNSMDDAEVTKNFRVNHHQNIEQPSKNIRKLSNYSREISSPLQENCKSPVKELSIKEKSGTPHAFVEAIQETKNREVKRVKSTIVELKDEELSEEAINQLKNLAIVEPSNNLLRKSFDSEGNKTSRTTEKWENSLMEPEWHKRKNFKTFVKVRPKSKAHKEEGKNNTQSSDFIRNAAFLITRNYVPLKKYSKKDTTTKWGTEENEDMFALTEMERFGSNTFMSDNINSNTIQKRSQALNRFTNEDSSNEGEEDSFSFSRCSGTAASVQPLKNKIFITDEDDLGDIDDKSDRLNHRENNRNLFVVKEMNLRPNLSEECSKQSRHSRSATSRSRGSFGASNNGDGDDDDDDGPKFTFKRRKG

Variants of: B1
Conditions: with xrs2_yeast XRS2, P33301

Q: Which “effect of a mutation on the interaction” value does the source give for P277A;S278A;T279A here?
A: The value was “decreasing interaction strength”.

Q: G270D was tested. Which “effect of a mutation on the interaction” value did it give?
A: Its value is “decreasing interaction strength”.

Q: For S267A;P268A, which “effect of a mutation on the interaction” value is on record?
A: The value was “disrupting interaction strength”.
